# Measured values taken from paper PMC3947372 (Journal of molecular biology, 2013).
# B1: NaVAe1p, pore-only sodium channel protein derived from the Alkalilimnicola ehrlichei BacNaV NaVAe1 (domain or fragment)
# chain: LLRAIPGIAWIALLLLVIFYVFAVMGTKLFAQSFPEWFGTLGASMYTLFQVMTLESWSMGIARPVIEAYPWAWIYFVSFILVSSFTVLNLFIGIIIESMQSAHWEAEDAKRIEQEQRAHDERLEMLQLIRDLSSKVDRLERRSGKR
# Biological target: the molecule itself
# Experiment: crystal structure
protein,measurement,value
B1,stoichiometry N,4
